Experimental data reported in patent publication US20220356230A1 (published 2022).

Tests used:
[1] = biological target: T1, MERS-CoV (NCoV/Novel coronavirus) Spike Protein fragment (RBD, aa 367-606, His Tag) (Sino 40071-V08B1) (MERS-CoV, UniProt K9N5Q8 367-606); experiment: Luminex bead assay, supernatant
T1 sequence: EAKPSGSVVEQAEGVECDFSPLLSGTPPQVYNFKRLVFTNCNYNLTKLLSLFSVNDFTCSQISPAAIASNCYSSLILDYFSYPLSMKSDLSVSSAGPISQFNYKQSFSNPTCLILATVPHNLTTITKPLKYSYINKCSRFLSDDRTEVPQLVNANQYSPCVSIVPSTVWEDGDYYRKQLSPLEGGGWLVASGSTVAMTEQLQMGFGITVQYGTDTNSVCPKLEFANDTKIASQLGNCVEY

[2] = biological target: T2, MERS-CoV (NCoV/Novel coronavirus) Spike Protein S1 Protein (aa 1-725, His Tag) (Sino 40069-V08B1) (MERS-CoV, UniProt K9N5Q8 18-725); experiment: Luminex bead assay, supernatant
T2 sequence: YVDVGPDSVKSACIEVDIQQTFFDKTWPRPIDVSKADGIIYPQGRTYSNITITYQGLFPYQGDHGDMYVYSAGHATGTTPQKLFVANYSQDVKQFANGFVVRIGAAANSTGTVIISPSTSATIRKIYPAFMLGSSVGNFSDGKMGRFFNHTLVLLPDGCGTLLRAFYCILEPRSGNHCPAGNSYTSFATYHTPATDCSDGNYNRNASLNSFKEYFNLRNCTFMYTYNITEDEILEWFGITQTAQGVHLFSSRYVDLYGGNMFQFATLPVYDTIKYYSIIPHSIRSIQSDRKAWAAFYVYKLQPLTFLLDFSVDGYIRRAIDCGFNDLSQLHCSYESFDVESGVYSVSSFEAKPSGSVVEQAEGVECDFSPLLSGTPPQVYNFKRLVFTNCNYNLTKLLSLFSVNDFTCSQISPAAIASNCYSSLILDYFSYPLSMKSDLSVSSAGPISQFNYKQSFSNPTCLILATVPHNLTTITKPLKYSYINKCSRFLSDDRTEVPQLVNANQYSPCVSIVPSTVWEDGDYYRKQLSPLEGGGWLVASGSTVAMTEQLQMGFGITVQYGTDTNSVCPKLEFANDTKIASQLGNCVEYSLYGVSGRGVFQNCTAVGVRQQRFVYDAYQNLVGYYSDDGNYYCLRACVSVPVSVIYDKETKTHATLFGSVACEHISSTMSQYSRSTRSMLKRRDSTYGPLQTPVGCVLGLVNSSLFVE

Binder	Binding signal (MFI) [1] [MFI]	Binding signal (MFI) [2] [MFI]
mAb10982 (antibody, V domains shown) VH: EVQLVESGGGLVQPGGSLRLSCAASGLTVSSNYMSWVRQAPGKGLEWVSVIYSGGTTYYADSVKGRFTISRHNSKNTLSLQMNSLRAEDTAVYYCARGEGANYYGMDVWGQGTTVTVSS VL: QSVLTQPPSVSGAPGQRVTISCTGSSSNIGTGYDVHWYQQLPGTAPKLLIYGNSNRPSGVPDRFSGSKSGTSASLAITGLQAEDEADYYCQSYDSSLSGYVVFGGGTKLTVLG	29	
mAb10985 (antibody, V domains shown) VH: EVQLVESGGGLVQPGRSLRLSCAASGFTFDDYAMHWVRQAPGKGLEWVSGISWNRGSIGYADSVKGRFTISRDNAKNSLYLQMSSLRAEDTALYYCAKDGERWDSVVVPSARNGMDVWGQGTTVTVSS VL: QSVLTQPPSVSGAPGQRVTISCTGSSSNIGAGYDVHWYQQLPGTAPKLLIYGNSNRPSGVPDRFSGSKSGTSASLAITGLQAEDEADYYCQSYDSSLSGSYVFGTGTKVTVLG	31	22
mAb10969 (antibody, V domains shown) VH: QVQLVESGGGVVQPGRSLRLSCAASGFTFSSYAMHWVRQAPGKGLEWVAVISYDGSNKYYADSVKGRFTISRDNSKNTLYLQMNSLRAEDTAVYYCARDGRTITMVRGVIDDAFDIWGQGTMVTVSS VL: not shown		19
mAb10984 (antibody, V domains shown) VH: EVQLVESGGGLVQPGGSLRLSCAASGLTVNRNYMSWVRQAPGKGLEWVSLIYSGGSTYYADSVKGRFTISRDNSKNTLYLQMNSLRLEDTAVYYCARGELGIPYGMDVWGQGTTVTVSS VL: QSVLTQPPSVSAAPGQKVTISCSGSSSNIGNNYVSWYQQLPGTAPKLLIYDNNKRPSGIPDRFSGSKSGTSATLGITGLQTGDEADYYCGTWDSSLSAGVFGGGTKLTVLG	29	20
mAb10920 (antibody, V domains shown) VH: QVQLVESGGGVVQPGRSLRLSCAASGFTFSYYGMHWVRQAPGKGLEWVAVIWYDGSNKFYADSVKGRFTISRDNSKNTLYLQMNSLRAEDTAVYYCAAARPGYYYGMDVWGQGTTVTVSS VL: DIQMTQSPSSLSASVGDRVTITCRASQGISNYLAWFQQKPGKAPNSLIYAASSLQRGVPSKFSGSGSGTDFTLTISSLQPEDFATYYCQQYNSYPRTFGQGTKVEIKR	39	27
mAb10930 (antibody, V domains shown) VH: EVQLVESGGGLVQPGRSLRLSCAASGFTFDDYAMYWVRQAPGKGLEWVSGISWNSGSIGYADSVKGRFTISRDNAKNSLYLQMNSLRAADTALYYCAKDKDWNSRGYYYYGMDVWGQGTTVTVSS VL: not shown	27	22
mAb10971 (antibody, V domains shown) VH: EVQLVESGGGLIQPGGSLRLSCAASGVTVSSNYMSWVRQAPGKGLEWVSVIYSGGSTFYSDSVKGRFSISRDNSKNTLYLQMNSLRAEDTAVYYCARDLYYYGMDVWGQGTTVTVSS VL: DIQLTQSPSFLSASVGDRVTITCRASQGISTYLAWYQQKPGKAPKLLIYAASTLQSGVPSRFSGSGSGTEFTLTISSLQPEDFATYYCQQLDSYPGLTFGGGTKVEIKR		19
mAb10964 (antibody, V domains shown) VH: QVQLQESGPGLVKPSETLSLTCTVSGGSINNYYWIWIRQPPGKGLEWIGYIYHSGSTNYNPSLKSRVTISVDTSKNQFSLKVSSVTAADTAVYYCANMVRGVYEDDYWGQGTLVTVSS VL: DIQMTQSPSSLSASVGDRVTITCRASQSISNYLNWYQQKPGKAPKLLIFAASSLRSGVPSRFSGSGSGTDFTLTISSLHPEDFATYYCQQNYNTPLTFGPGTKVDIKR		19
mAb10913 (antibody, V domains shown) VH: EVQLVESGGGLVQPGGSLRLSCAASGFTFRNYEMNWVRQAPGKGLEWVSYITSSGSTMYYADSVKGRFTISRDNAKNSLYLQMNSLRAEDTAVYYCARDGFYYYYAMDVWGQGTTVTVSS VL: QSVLTQPPSVSAAPGQKVTISCSGSSSNIGNNYVSWYQQLPGTAPKLLIYDNNKRPSGIPDRFSGSKSGTSATLGITGLQTGDEADYYCGTWDSSLSVGRVFGTGTKVTVLG	34	26
mAb10923 (antibody, V domains shown) VH: QVQLVQSGAEVKKPGASVKVSCKASGYTFINYYIHWVRQAPGQGLEWMGWINPNSGGTNYAQKFQGRVTMTRDTSISTAYMELSRLRSDDTAVYYCAIITIFGVVTWFDPWGQGTLVTVSS VL: not shown	37	25
mAb10921 (antibody, V domains shown) VH: EVQLVESGGGLVQPGGSLRLSCAASGITVSSNYMSWVRQAPGKGLEWVSVIYSGGSTFYADSVKGRFTISRHNSKNTLYLQMNSLRAEDTAVYYCARERNFDAFDIWGQGTMVTVSS VL: DIQMTQSPSSVSASVGDRVTITCRASQGISSWLAWYQQKPGKAPKLLIYAASSLQSGVPSRFSGSGSGTDFTLTISSLQPEDFATYYCQQANSFPLFTFGPGTKVDIKR	23	
mAb10934 (antibody, V domains shown) VH: not shown VL: DIQMTQSPSSLSASVGDRVTITCQASQDIWNYINWYQQKPGKAPKLLIYDASNLKTGVPSRFSGSGSGTDFTFTISSLQPEDIATYYCQQHDDLPPTFGQGTKVEIKR	24	20
mAb10935 (antibody, V domains shown) VH: EVQLVESGGGLVQPGGSLRLSCAASGFTVSSNYMSWVRQAPGKGLEWVSLIYSGGSTYYADSVKGRFTISRHNSKNTLYLQMNSLRSEDTAVYYCARVPLGDYYYGMDVWGQGTTVTVSS VL: DIQMTQSPSSLSASVGDRVTITCQASQDINKYLNWYQQKPGKAPKLLIYDASNLETGVPSRFSGSGSGTDFTFTISSLQPEDIATYYCQQSDNLPLTFGGGTKVEIKR	25	
mAb10938 (antibody, V domains shown) VH: EVQLVESGGGLVQPGGSLRLSCAVSGFTVSSNYMSWVRQAPGKGLEWVSLIYSGGSTFYADSVKGRFTISRHNSKNTLYLQMNSLRAEDTAVYYCAREGGYSYDYNYWGQGTLVTVSS VL: DIQMTQSPSSLSASVGDRVTITCQASQDIRNYLNWYQQKPGKAPKLLIYDASNLETGVPSRFSGIGSGTDFTFTISSLQPEDIATYYCQQYDNLPITFGQGTRLEIKR	25	20
mAb10914 (antibody, V domains shown) VH: EVQLVESGGGLVQPGGSLRLSCAASGLIVSRNYMIWVRQAPGKGLEWVSVIYSGGSTFYADSVKGRFTISRHNSKNTLYLQMNSLRAEDTAVYYCARDLGTGGMDVWGQGTTVTVSS VL: DIQLTQSPSFLSASVGDRVTITCWASQGISSYLAWYQQKPGKAPKLLIYAASTLQSGVPSRFSGSGSGTEFTLTISSLQPEDFATYYCQQLNSYPLTFGGGTKVEIKR	31	23
mAb10957 (antibody, V domains shown) VH: EVQLVESGGGLVQPGGSLRLSCAASGVTVSSNYMSWVRQAPGKGLEWVSVIYSGGSTFYADSVKGRFTISRDNSKNTLFLQMNSLRIEDTAVYYCARDLGPYGMDVWGQGTTVTVSS VL: DIQLTQSPSFLSASVGDRVTITCRASQGISSYLAWYQQKPGKAPKLLIYAASTLQSGVPSRFSGSGSGTQFILTISSLQPEDFATYYCQQLNSYPGFTFGPGTKVDIKR		19
mAb10936 (antibody, V domains shown) VH: QVQLVESGGGVVQPGRSLRLSCAASGFTFRNYGMHWVRQAPGKGLEWVSVIWYDGSNRYYADSVKGRFTISRDTSKNTLYLQMNSLRAEDTAVYYCARDPPITGTTGGDAFDIWGQGTMVTVSS VL: not shown	29	20
mAb10937 (antibody, V domains shown) VH: QITLKESGPTLVKPTQTLTLTCTFSGFSLSTNVVGVGWIRQPPGKALEWLALIYWNDDKRYSPSLKSRLTITKDTSKNQVVLTMTNMDPVDTATYYCAHGPTGDYFDYWGQGTLVTVSS VL: not shown	27	22
